For 3 substances, stoichiometry N and IC50 results are on record in PMC2481281.

Test [1] addresses γ-wt C9 (CXCL12γ with C-terminal bovine rhodopsin C9 tag) (mouse). As to the kind of experiment: SDS-PAGE and immunoblot; lysates of SFV-infected BHK cells separated by SDS-PAGE and probed with the K15C mAb; dimeric forms seen. Background: Immunoblotting shows a protein as a band on a membrane.
The target in test [2] is CXCL12γ protein, chemically synthesized (γ-wt) (mouse). As to the kind of experiment: SDS-PAGE and immunoblot; chemically synthesized chemokines separated by SDS-PAGE and probed with the K15C mAb; dimeric forms seen.
In test [3] the target is CXCR7 on CXCR7-transduced A0.01 cells (UniProt P25106). As to the kind of experiment: flow cytometry on cells; competition: 1 nM α-biot on CXCR7-transduced A0.01 cells with increasing concentrations of untagged chemokine, washed, labelled with 1 µg/ml streptavidin-PE; normalised to binding without competitor; one-site non-linear regression.
For test [4], the target named is α-wt C9 (CXCL12α with C-terminal bovine rhodopsin C9 tag) (mouse) (UniProt P40224). As to the kind of experiment: SDS-PAGE and immunoblot; lysates of SFV-infected BHK cells separated by SDS-PAGE and probed with the K15C mAb; dimeric forms seen.

Sequence of UniProt P25106 (P25106 whole entry): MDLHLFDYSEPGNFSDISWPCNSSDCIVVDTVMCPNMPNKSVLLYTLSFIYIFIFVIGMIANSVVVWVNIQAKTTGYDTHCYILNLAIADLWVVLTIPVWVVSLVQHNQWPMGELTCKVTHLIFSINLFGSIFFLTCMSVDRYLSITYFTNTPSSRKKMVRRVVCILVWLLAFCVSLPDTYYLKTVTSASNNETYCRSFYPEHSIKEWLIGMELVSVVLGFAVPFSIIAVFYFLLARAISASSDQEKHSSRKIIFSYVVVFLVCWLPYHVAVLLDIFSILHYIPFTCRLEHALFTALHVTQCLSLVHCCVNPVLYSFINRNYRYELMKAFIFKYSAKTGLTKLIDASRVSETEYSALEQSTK

One may read the stoichiometry N as a count of units in the complex or per binding partner. Substance “γ-wt C9 (CXCL12γ with C-terminal bovine rhodopsin C9 tag) (ligand)” displayed a stoichiometry N in test [1] of 2.

A word on the IC50: it is the midpoint of a concentration-inhibition curve. Regarding “CXCL12γ protein, chemically synthesized (γ-wt) (ligand)”, the stoichiometry N in test [2] is 2. Further, the 50% inhibitory concentration (IC50) in test [3] stood at 0.0104 µM.

In test [4], “α-wt C9 (CXCL12α with C-terminal bovine rhodopsin C9 tag) (from UniProt P40224-2 22-93) (ligand)” registered a stoichiometry N of 2.
